Here are results for one molecule from patent US20210063414A1, “METHODS FOR PREVENTING AND/OR TREATING BONE LOSS CONDITIONS BY MODULATING IRISIN” (Dana-Farber Cancer Institute, Inc., priority 2018, published 2021).

For test [1], the target named is T1, MLO-Y4 cell surface proteins (Mus musculus, UniProt P97350).
T1 construct: endogenous in cells; host or cells: MLO-Y4
T1 sequence (P97350 1-728): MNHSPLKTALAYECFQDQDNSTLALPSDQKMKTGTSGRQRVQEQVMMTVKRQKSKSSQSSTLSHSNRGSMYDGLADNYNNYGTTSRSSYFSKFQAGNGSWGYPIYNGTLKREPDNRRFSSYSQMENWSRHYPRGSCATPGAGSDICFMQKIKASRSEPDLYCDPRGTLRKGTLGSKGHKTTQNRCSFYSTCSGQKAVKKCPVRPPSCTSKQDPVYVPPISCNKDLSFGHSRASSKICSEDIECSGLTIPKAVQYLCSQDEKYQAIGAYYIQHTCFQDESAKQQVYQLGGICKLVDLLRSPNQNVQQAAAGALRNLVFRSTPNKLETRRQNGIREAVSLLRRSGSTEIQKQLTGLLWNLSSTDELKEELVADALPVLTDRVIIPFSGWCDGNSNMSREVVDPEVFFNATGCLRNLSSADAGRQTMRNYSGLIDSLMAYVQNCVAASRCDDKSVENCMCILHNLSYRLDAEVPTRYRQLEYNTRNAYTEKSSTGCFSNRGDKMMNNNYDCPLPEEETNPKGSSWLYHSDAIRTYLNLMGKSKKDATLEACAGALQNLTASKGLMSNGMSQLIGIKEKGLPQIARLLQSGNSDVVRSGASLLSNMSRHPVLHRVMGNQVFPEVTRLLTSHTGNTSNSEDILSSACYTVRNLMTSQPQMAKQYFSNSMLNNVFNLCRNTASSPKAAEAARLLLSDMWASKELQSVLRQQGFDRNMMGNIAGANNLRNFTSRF
In words: Crosslinking/co-immunoprecipitation/mass spectrometry (TMT quantitative proteomics) to identify irisin receptors. Type of test: binding. As to conditions: co-precipitated protein Pkp1 (PKP1_MOUSE). Summed up: (§1)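 Mouse MLO-Y4 cells were switched to serum-free FreeStyle medium for 4 h, chilled, then exposed to 10 nM His-tagged irisin (or adipsin as control) for 20 min. Cells were crosslinked with 1.5 mM DTSSP (30 min, ice), and bound proteins were pulled down on Ni-NTA and eluted with 250 mM imidazole. Eluates were separated by SDS-PAGE, trypsin-digested in gel, TMT 6-plex labelled and quantified by MS3-based LC-MS/MS on an Orbitrap Fusion Lumos.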

Test [2] deals with T2, MLO-Y4 cell surface proteins (Mus musculus, UniProt P52825).
T2 construct: endogenous in cells; host or cells: MLO-Y4
T2 sequence (P52825 26-658): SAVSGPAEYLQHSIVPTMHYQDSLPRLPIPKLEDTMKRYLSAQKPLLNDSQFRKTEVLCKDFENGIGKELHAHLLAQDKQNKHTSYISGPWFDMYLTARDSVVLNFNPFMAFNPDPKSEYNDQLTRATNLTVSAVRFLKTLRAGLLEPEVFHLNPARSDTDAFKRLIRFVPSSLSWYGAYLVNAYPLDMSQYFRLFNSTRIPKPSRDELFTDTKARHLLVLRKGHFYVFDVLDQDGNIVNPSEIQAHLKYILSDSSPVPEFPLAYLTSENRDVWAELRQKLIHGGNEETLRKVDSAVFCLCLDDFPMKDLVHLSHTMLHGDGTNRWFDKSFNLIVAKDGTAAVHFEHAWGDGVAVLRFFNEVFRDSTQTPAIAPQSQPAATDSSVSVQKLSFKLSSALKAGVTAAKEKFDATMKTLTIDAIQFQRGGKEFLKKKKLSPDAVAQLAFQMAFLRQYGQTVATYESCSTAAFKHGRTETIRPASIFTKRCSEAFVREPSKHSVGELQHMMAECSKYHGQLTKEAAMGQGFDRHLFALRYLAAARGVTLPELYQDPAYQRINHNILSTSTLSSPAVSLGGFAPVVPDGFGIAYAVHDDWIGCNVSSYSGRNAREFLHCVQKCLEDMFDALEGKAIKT
The test is described as above. As to conditions: co-precipitated protein Cpt2 (CPT2_MOUSE). Type of test: binding. Summed up: as §1

B1: irisin: secreted cleaved form of FNDC5; recombinant human/mouse irisin with C-terminal his tag produced in HEK293 cells (protein)
chain: DSPSAPVNVTVRHLKANSAVVSWDVLEDEVVIGFAISQQKKDVRMLRFIQEVNTTTRSCALWDLEEDTEYIVHVQAISIQGQSPASEPVLFKTPREAEKMASKNKDEVTMKE
modifications: left off: small tags and cut ends
notes: secreted cleaved form of FNDC5; recombinant human/mouse irisin with C-terminal his tag produced in HEK293 cells
As for B1, in test [1], the TMT signal-to-noise ratio is recorded as 8.015 and the “irisin/adipsin TMT signal-to-noise ratio” value was 0.082. Besides, in test [2], the TMT signal-to-noise ratio amounted to 96.8301 and the “irisin/adipsin TMT signal-to-noise ratio” value was found to be 0.545.
